Data published in publication PMC4995097, “Talin-KANK1 interaction controls the recruitment of cortical microtubule stabilizing complexes to focal adhesions” (eLife, 2016).

Assays:
[1] = tested on: microtubule plus ends in HeLa cells; assay: Ratio of microtubule growth rate in the cell center and at the cell edge; type: cell-based, human; conditions: depletion and rescue, EB3-mRFP
Experimental: nEB3-mRFP dynamics was recorded by 0.5 s interval time lapse TIRF imaging. Microtubule growth was measured using kymographs obtained from EB3-mRFP time lapse image series, plotted and presented as previously described ([van der Vaart et al., 2013]). Ratio of microtubule growth in cell center to periphery was obtained as values for individual cells. Microtubule growth trajectory angle to the cell edge was manually measured in ImageJ using tracks obtained by maximum intensity projection of EB3-mRFP image series.

[2] = tested on: talin1 / talin2 (HEK293T cells); assay: Streptavidin pull down of Bio-GFP-KANK1 combined with mass spectrometry; type: binding, human
Experimental: Streptavidin-based pull down assays of biotinylated proteins expressed using pBioGFP-C1 constructs transfected in HEK293T cells was performed and analyzed as previously described ([van der Vaart et al., 2013]). For mass spectrometry sample preparation, streptavidin beads resulting from pull-downs assays were ran on a 12% Bis-Tris 1D SDS-PAGE gel (Biorad) for 1 cm and stained with colloidal coomassie dye G-250 (Gel Code Blue Stain Reagent, Thermo Scientific). The lane was cut and treated with 6.5 mM dithiothreitol (DTT) for 1 hr at 60°C for reduction and 54 mM iodoacetamide for 30 min for alkylation. The proteins were digested overnight with trypsin (Promega) at 37°C. The peptides were extracted with 100% acetonitrile (ACN) and dried in a vacuum concentrator. For RP-nanoLC-MS/MS, samples were resuspended in 10% formic acid (FA) / 5% DMSO and was analyzed using a Proxeon Easy-nLC100 (Thermo Scientific) connected to an Orbitrap Q-Exactive mass spectrometer. Samples were first trapped (Dr Maisch Reprosil C18, 3 μm, 2 cm × 100 μm) before being separated on an analytical column (Agilent Zorbax 1.8 μm SB-C18, 40 cm × 50 μm), using a gradient of 180 min at a column flow of 150 nl min^-1. […]

B1: KANK1: full-length KANK1, BioGFP- or GFP-tagged; siRNA-resistant version for rescue (protein)
chain: MAHTTKVNGSASGKAGDILSGDQDKEQKDPYFVETPYGYQLDLDFLKYVDDIQKGNTIKRLNIQKRRKPSVPCPEPRTTSGQQGIWTSTESLSSSNSDDNKQCPNFLIARSQVTSTPISKPPPPLETSLPFLTIPENRQLPPPSPQLPKHNLHVTKTLMETRRRLEQERATMQMTPGEFRRPRLASFGGMGTTSSLPSFVGSGNHNPAKHQLQNGYQGNGDYGSYAPAAPTTSSMGSSIRHSPLSSGISTPVTNVSPMHLQHIREQMAIALKRLKELEEQVRTIPVLQVKISVLQEEKRQLVSQLKNQRAASQINVCGVRKRSYSAGNASQLEQLSRARRSGGELYIDYEEEEMETVEQSTQRIKEFRQLTADMQALEQKIQDSSCEASSELRENGECRSVAVGAEENMNDIVVYHRGSRSCKDAAVGTLVEMRNCGVSVTEAMLGVMTEADKEIELQQQTIESLKEKIYRLEVQLRETTHDREMTKLKQELQAAGSRKKVDKATMAQPLVFSKVVEAVVQTRDQMVGSHMDLVDTCVGTSVETNSVGISCQPECKNKVVGPELPMNWWIVKERVEMHDRCAGRSVEMCDKSVSVEVSVCETGSNTEESVNDLTLLKTNLNLKEVRSIGCGDCSVDVTVCSPKECASRGVNTEAVSQVEAAVMAVPRTADQDTSTDLEQVHQFTNTETATLIESCTNTCLSTLDKQTSTQTVETRTVAVGEGRVKDINSSTKTRSIGVGTLLSGHSGFDRPSAVKTKESGVGQININDNYLVGLKMRTIACGPPQLTVGLTASRRSVGVGDDPVGESLENPQPQAPLGMMTGLDHYIERIQKLLAEQQTLLAENYSELAEAFGEPHSQMGSLNSQLISTLSSINSVMKSASTEELRNPDFQKTSLGKITGNYLGYTCKCGGLQSGSPLSSQTSQPEQEVGTSEGKPISSLDAFPTQEGTLSPVNLTDDQIAAGLYACTNNESTLKSIMKKKDGNKDSNGAKKNLQFVGINGGYETTSSDDSSSDESSSSESDDECDVIEYPLEEEEEEEDEDTRGMAEGHHAVNIEGLKSARVEDEMQVQECEPEKVEIRERYELSEKMLSACNLLKNTINDPKALTSKDMRFCLNTLQHEWFRVSSQKSAIPAMVGDYIAAFEAISPDVLRYVINLADGNGNTALHYSVSHSNFEIVKLLLDADVCNVDHQNKAGYTPIMLAALAAVEAEKDMRIVEELFGCGDVNAKASQAGQTALMLAVSHGRIDMVKGLLACGADVNIQDDEGSTALMCASEHGHVEIVKLLLAQPGCNGHLEDNDGSTALSIALEAGHKDIAVLLYAHVNFAKAQSPGTPRLGRKTSPGPTHRGSFD
modifications: biotinylated on the Bio tag (by BirA); left off: biotinylation (Bio) tag, end not stated, kept | GFP, end not stated, kept
notes: full-length KANK1, BioGFP- or GFP-tagged; siRNA-resistant version for rescue
B1 was tested, and the “microtubule growth, fold slower at cell margin/edge than in cell center” value [1] was roughly 2.5 fold and the “binding partner found by mass spectrometry: talin1 (in words)” value [2] was “we identified talin1 among the strongest hits”.
